Values of other authors, collected in publication PMC2990782 (Gene therapy, 2010).

Settings: i.v. dosed polyplex; ref [22]

PEG-Cys-Trp-Lys18
time to complete metabolism of plasmid DNA in the circulation: ≤ 3 min
